# Reference: patent US20210130437A1 (ALPINE IMMUNE SCIENCES, published 2021)
# T1: human TIGIT expressed on cells (Jurkat/TIGIT cells) (human, UniProt Q495A1 22-244)
# T1 sequence: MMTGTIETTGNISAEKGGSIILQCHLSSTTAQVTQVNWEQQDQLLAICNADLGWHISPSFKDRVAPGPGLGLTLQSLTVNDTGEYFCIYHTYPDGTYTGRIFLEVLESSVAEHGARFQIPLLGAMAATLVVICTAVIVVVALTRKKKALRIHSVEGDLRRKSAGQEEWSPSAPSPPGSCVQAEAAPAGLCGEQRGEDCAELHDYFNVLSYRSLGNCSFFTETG
# T2: CD226 (Homo sapiens (Human), UniProt Q15762 19-336)
# T2 construct: on transfected cells
# T2 sequence: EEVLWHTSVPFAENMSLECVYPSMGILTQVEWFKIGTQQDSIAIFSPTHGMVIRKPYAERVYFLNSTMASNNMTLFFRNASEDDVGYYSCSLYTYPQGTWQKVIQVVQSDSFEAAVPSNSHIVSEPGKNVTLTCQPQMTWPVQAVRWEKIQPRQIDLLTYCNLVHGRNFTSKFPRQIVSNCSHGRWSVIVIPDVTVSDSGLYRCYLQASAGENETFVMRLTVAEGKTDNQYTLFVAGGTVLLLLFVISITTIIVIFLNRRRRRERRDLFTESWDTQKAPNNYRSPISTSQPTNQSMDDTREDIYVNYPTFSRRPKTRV
# T3: CD96 (UniProt P40200 22-585, limits assumed)
# T3 construct: whole, on cells; on transfected cells
# T3 sequence (looked up): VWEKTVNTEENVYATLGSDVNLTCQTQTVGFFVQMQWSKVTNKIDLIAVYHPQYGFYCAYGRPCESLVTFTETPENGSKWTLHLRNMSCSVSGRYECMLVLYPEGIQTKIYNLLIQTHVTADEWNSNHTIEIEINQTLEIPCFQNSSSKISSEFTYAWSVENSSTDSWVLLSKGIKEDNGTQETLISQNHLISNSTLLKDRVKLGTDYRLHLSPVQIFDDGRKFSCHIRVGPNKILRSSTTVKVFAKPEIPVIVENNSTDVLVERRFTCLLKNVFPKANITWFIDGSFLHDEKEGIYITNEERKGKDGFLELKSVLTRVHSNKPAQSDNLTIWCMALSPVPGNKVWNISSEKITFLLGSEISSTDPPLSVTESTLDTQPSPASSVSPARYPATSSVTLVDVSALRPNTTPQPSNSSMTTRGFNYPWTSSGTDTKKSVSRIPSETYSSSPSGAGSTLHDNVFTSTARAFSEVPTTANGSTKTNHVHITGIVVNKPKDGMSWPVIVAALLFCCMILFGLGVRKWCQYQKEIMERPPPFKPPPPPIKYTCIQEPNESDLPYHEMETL
# T4: TIGIT (Homo sapiens (Human), UniProt Q495A1 22-244)
# T4 construct: on transfected cells
# T4 sequence: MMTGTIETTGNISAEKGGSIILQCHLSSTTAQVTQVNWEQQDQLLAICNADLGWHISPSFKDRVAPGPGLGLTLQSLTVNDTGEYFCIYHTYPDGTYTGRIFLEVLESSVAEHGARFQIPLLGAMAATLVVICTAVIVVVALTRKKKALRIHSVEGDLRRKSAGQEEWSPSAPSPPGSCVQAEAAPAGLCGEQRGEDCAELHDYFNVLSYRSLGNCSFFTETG
# What was measured:
# [1] = target: T5, human PD-1 expressed on cells (Jurkat/PD-1 cells) (human, UniProt Q15116 21-288); assay: flow cytometry, Jurkat/PD-1 cells
# T5 construct: also called PDCD1
# T5 sequence (Q15116 21-288): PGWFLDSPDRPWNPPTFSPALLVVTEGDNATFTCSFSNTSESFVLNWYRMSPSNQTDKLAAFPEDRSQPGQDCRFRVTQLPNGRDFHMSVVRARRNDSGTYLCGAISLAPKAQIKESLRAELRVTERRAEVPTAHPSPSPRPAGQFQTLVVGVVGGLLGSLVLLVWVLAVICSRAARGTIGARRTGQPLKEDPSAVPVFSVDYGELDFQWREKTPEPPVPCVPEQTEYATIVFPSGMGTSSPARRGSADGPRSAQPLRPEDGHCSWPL
# [2] = target: T1, human TIGIT expressed on cells …; assay: flow cytometry, Jurkat/TIGIT cells
# [3] = target: T6, PD-1 stably expressed on Jurkat/IL-2 reporter cells (Jurkat/PD-1) (human, UniProt Q15116 21-288); assay: culture supernatant on PD-1+ Jurkat cells, surface bound PD-L2 detected with anti-his-APC by flow cytometry
# T6 construct: also called Jurkat/PD-1 cells; PD-1+ Jurkat cells
# T6 sequence (Q15116 21-288): as above
# CD226 = target: T2, CD226; assay: flow cytometry, transfected cells
# CD96 = target: T3, CD96; assay: flow cytometry, transfected cells
# TIGIT = target: T4, TIGIT; assay: flow cytometry, transfected cells
MFI at 6.25 nM [1] [MFI],MFI at 6.25 nM [2] [MFI],binding result [3],Binder,further results
64,,,"Wild Type CD155 full ECD Fc (Fc fusion, not shown: Fc and linker not specified) WPPPGTGDVVVQAPTQVPGFLGDSVTLPCYLQVPNMEVTHVSQLTWARHGESGSMAVFHQTQGPSYSESKRLEFVAARLGAELRNASLRMFGLRVEDEGNYTCLFVTFPQGSRSVDIWLRVLAKPQNTAEVQKVQLTGEPVPMARCVSTGGRPPAQITWHSDLGGMPNTSQVPGFLSGTVTVTSLWILVPSSQVDGKNVTCKVEHESFEKPQLLTVNLTVYYPPEVSISGYDNNWYLGQNEATLTCDARSNPEPTGYNWSTTMGPLPPFAVAQGAQLLIRPVDKPINTTLICNVTNALGARQAELTVQVKEGPPSEHSGISRN",
66,9970,,"PD-L2/CD155 Stack 6 (Fc fusion, Homodimer; also called Fc (G4S)3 (PD-L2 IgV) (G4S)3 (CD155 IgV)) EPKSSDKTHTCPPCPAPEAEGAPSVFLFPPKPKDTLMISRTPEVTCVVVDVSHEDPEVKFNWYVDGVEVHNAKTKPREEQYNSTYRVVSVLTVLHQDWLNGKEYKCKVSNKALPAPIEKTISKAKGQPREPQVYTLPPSRDELTKNQVSLTCLVKGFYPSDIAVEWESNGQPENNYKTTPPVLDSDGSFFLYSKLTVDKSRWQQGNVFSCSVMHEALHNHYTQKSLSLSPGKGGGGSGGGGSGGGGSLFTVTVPKELYIIEQGSNVTLECNFDTGSHVNLGAITASLQKVENDASPHRERATLLEEQLPLGRALFHIPQVQVRDEGQYRCIIIYGDAWDYKYLTLKVKAGGGGSGGGGSGGGGSWPPPGTGDVVVQAPTQVSGFLGDSVTLPCYLQVPNMEVTHVSQLTWARHGESGSMAVFHQTQGPWYAESKRLEFVAARLGAELRNASLRMFGLRVEDEGNYTCQFVTFPQRSRSVDIWLRVL",
,,binds,"PD-L2 SIP with variant PD-L2 IgV H15Q,T47A,S67L,R76G,Q82R,V89D (SEQ ID NO:342), Avitag and His tag (ligand, also called variant PD-L2 SIP) LFTVTVPKELYIIEQGSNVTLECNFDTGSHVNLGAITASLQKVENDASPHRERATLLEEQLPLGKALFHIPQVQVGDEGQYRCIIIYGDAWDYKYLTLKVKAGLNDIFEAQKIEWHEHHHHHH",
,,binds,"PD-L2 SIP with variant PD-L2 IgV H15Q,V31M,S67L,Q82R,V89D (SEQ ID NO:316), Avitag and His tag (ligand, also called variant PD-L2 SIP) LFTVTVPKELYIIEQGSNVTLECNFDTGSHMNLGAITASLQKVENDTSPHRERATLLEEQLPLGKALFHIPQVQVRDEGQYRCIIIYGDAWDYKYLTLKVKAGLNDIFEAQKIEWHEHHHHHH",
,,binds,"PD-L2 SIP with variant PD-L2 IgV H15Q,T47A,K65R,S67L,Q82R,V89D (SEQ ID NO:328), Avitag and His tag (ligand, also called variant PD-L2 SIP) LFTVTVPKELYIIEQGSNVTLECNFDTGSHVNLGAITASLQKVENDASPHRERATLLEEQLPLGRALFHIPQVQVRDEGQYRCIIIYGDAWDYKYLTLKVKAGLNDIFEAQKIEWHEHHHHHH",
,46,,"Wild Type PD-L2 full ECD Fc (Fc fusion, not shown: Fc and linker not specified) LFTVTVPKELYIIEHGSNVTLECNFDTGSHVNLGAITASLQKVENDTSPHRERATLLEEQLPLGKASFHIPQVQVRDEGQYQCIIIYGVAWDYKYLTLKVKASYRKINTHILKVPETDEVELTCQATGYPLAEVSWPNVSVPANTSHSRTPEGLYQVTSVLRLKPPPGRNFSCVFWNTHVRELTLASIDLQSQMEPRTHPT",

# Further lines, the binder ahead of its results:
Binder,MFI at 6.25 nM [1] [MFI],MFI at 6.25 nM [2] [MFI],binding result [3],further results
"PD-L2/CD155 Stack 5 (Fc fusion, Homodimer; also called Fc (G4S)3 (CD155 IgV) (G4S)3 (PD-L2 IgV)) EPKSSDKTHTCPPCPAPEAEGAPSVFLFPPKPKDTLMISRTPEVTCVVVDVSHEDPEVKFNWYVDGVEVHNAKTKPREEQYNSTYRVVSVLTVLHQDWLNGKEYKCKVSNKALPAPIEKTISKAKGQPREPQVYTLPPSRDELTKNQVSLTCLVKGFYPSDIAVEWESNGQPENNYKTTPPVLDSDGSFFLYSKLTVDKSRWQQGNVFSCSVMHEALHNHYTQKSLSLSPGKGGGGSGGGGSGGGGSWPPPGTGDVVVQAPTQVSGFLGDSVTLPCYLQVPNMEVTHVSQLTWARHGESGSMAVFHQTQGPWYAESKRLEFVAARLGAELRNASLRMFGLRVEDEGNYTCQFVTFPQRSRSVDIWLRVLGGGGSGGGGSGGGGSLFTVTVPKELYIIEQGSNVTLECNFDTGSHVNLGAITASLQKVENDASPHRERATLLEEQLPLGRALFHIPQVQVRDEGQYRCIIIYGDAWDYKYLTLKVKA",108,5490,,
"PD-L2/CD155 Stack 2 (Fc fusion, Homodimer; also called (PD-L2 IgV) (G4S)2 Fc (G4S)3 (CD155 IgV)) LFTVTVPKELYIIEQGSNVTLECNFDTGSHVNLGAITASLQKVENDASPHRERATLLEEQLPLGRALFHIPQVQVRDEGQYRCIIIYGDAWDYKYLTLKVKAGGGGSGGGGSEPKSSDKTHTCPPCPAPEAEGAPSVFLFPPKPKDTLMISRTPEVTCVVVDVSHEDPEVKFNWYVDGVEVHNAKTKPREEQYNSTYRVVSVLTVLHQDWLNGKEYKCKVSNKALPAPIEKTISKAKGQPREPQVYTLPPSRDELTKNQVSLTCLVKGFYPSDIAVEWESNGQPENNYKTTPPVLDSDGSFFLYSKLTVDKSRWQQGNVFSCSVMHEALHNHYTQKSLSLSPGKGGGGSGGGGSGGGGSWPPPGTGDVVVQAPTQVSGFLGDSVTLPCYLQVPNMEVTHVSQLTWARHGESGSMAVFHQTQGPWYAESKRLEFVAARLGAELRNASLRMFGLRVEDEGNYTCQFVTFPQRSRSVDIWLRVL",16300,9100,,
"PD-L2 SIP with wildtype PD-L2 IgV (SEQ ID NO:115), Avitag and His tag (ligand, also called PD-L2 secreted immunomodulatory protein) LFTVTVPKELYIIEHGSNVTLECNFDTGSHVNLGAITASLQKVENDTSPHRERATLLEEQLPLGKASFHIPQVQVRDEGQYQCIIIYGVAWDYKYLTLKVKAGLNDIFEAQKIEWHEHHHHHH",,,binds,
"PD-L2/CD155 Stack 3 (Fc fusion, Homodimer; also called (CD155 IgV) (G4S)3 (PD-L2 IgV) (G4S)2 Fc) WPPPGTGDVVVQAPTQVSGFLGDSVTLPCYLQVPNMEVTHVSQLTWARHGESGSMAVFHQTQGPWYAESKRLEFVAARLGAELRNASLRMFGLRVEDEGNYTCQFVTFPQRSRSVDIWLRVLGGGGSGGGGSGGGGSLFTVTVPKELYIIEQGSNVTLECNFDTGSHVNLGAITASLQKVENDASPHRERATLLEEQLPLGRALFHIPQVQVRDEGQYRCIIIYGDAWDYKYLTLKVKAGGGGSGGGGSEPKSSDKTHTCPPCPAPEAEGAPSVFLFPPKPKDTLMISRTPEVTCVVVDVSHEDPEVKFNWYVDGVEVHNAKTKPREEQYNSTYRVVSVLTVLHQDWLNGKEYKCKVSNKALPAPIEKTISKAKGQPREPQVYTLPPSRDELTKNQVSLTCLVKGFYPSDIAVEWESNGQPENNYKTTPPVLDSDGSFFLYSKLTVDKSRWQQGNVFSCSVMHEALHNHYTQKSLSLSPGK",91,22300,,
"Wildtype CD155 IgV Fc (Fc fusion, not shown: a dimerising Fc or GST) WPPPGTGDVVVQAPTQVPGFLGDSVTLPCYLQVPNMEVTHVSQLTWARHGESGSMAVFHQTQGPSYSESKRLEFVAARLGAELRNASLRMFGLRVEDEGNYTCLFVTFPQGSRSVDIWLRVL",,,,MFI parental ratio (CD226): 1 ratio; MFI parental ratio (CD96): 1 ratio; MFI parental ratio (TIGIT): 1 ratio
"PD-L2/CD155 Stack 1 (Fc fusion, Homodimer; also called (CD155 IgV)-(G4S)2-Fc-(G4S)3 (PD-L2 IgV)) WPPPGTGDVVVQAPTQVSGFLGDSVTLPCYLQVPNMEVTHVSQLTWARHGESGSMAVFHQTQGPWYAESKRLEFVAARLGAELRNASLRMFGLRVEDEGNYTCQFVTFPQRSRSVDIWLRVLGGGGSGGGGSEPKSSDKTHTCPPCPAPEAEGAPSVFLFPPKPKDTLMISRTPEVTCVVVDVSHEDPEVKFNWYVDGVEVHNAKTKPREEQYNSTYRVVSVLTVLHQDWLNGKEYKCKVSNKALPAPIEKTISKAKGQPREPQVYTLPPSRDELTKNQVSLTCLVKGFYPSDIAVEWESNGQPENNYKTTPPVLDSDGSFFLYSKLTVDKSRWQQGNVFSCSVMHEALHNHYTQKSLSLSPGKGGGGSGGGGSGGGGSLFTVTVPKELYIIEQGSNVTLECNFDTGSHVNLGAITASLQKVENDASPHRERATLLEEQLPLGRALFHIPQVQVRDEGQYRCIIIYGDAWDYKYLTLKVKA",,19900,,
"PD-L2/CD155 Stack 4 (Fc fusion, Homodimer; also called (PD-L2 IgV) (G4S)3 (CD155 IgV) (G4S)2 Fc) LFTVTVPKELYIIEQGSNVTLECNFDTGSHVNLGAITASLQKVENDASPHRERATLLEEQLPLGRALFHIPQVQVRDEGQYRCIIIYGDAWDYKYLTLKVKAGGGGSGGGGSGGGGSWPPPGTGDVVVQAPTQVSGFLGDSVTLPCYLQVPNMEVTHVSQLTWARHGESGSMAVFHQTQGPWYAESKRLEFVAARLGAELRNASLRMFGLRVEDEGNYTCQFVTFPQRSRSVDIWLRVLGGGGSGGGGSEPKSSDKTHTCPPCPAPEAEGAPSVFLFPPKPKDTLMISRTPEVTCVVVDVSHEDPEVKFNWYVDGVEVHNAKTKPREEQYNSTYRVVSVLTVLHQDWLNGKEYKCKVSNKALPAPIEKTISKAKGQPREPQVYTLPPSRDELTKNQVSLTCLVKGFYPSDIAVEWESNGQPENNYKTTPPVLDSDGSFFLYSKLTVDKSRWQQGNVFSCSVMHEALHNHYTQKSLSLSPGK",9220,14500,,
